One test concerns the target human S100A2 (human) (UniProt P29034). The experiment in a line: ITC. On the technique in general: Isothermal titration calorimetry measures the heat released or taken up as one component is titrated into another.
For the next test, the target named is human S100B (human) (UniProt P04271). The experiment in a line: ITC.
Chain of human S100B (human) (P04271 whole entry): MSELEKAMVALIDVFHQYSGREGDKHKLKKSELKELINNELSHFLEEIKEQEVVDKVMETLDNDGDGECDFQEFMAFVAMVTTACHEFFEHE

Chain of human S100A2 (human) (P29034 whole entry): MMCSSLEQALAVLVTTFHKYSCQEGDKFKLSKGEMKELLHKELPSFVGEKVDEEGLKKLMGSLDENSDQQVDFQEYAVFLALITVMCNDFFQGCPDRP

With TRTK12 wild-type peptide (Ac-…-NH2), the stoichiometry N (peptides per S100A2 dimer) with human S100A2 (human) is 2. In the test with human S100B (human), this substance yielded a stoichiometry N (peptides per S100B dimer) of 2.

The record behind these values is PMC3839042.
